Laboratory results published in article PMC10786891, “Massively parallel profiling of RNA-targeting CRISPR-Cas13d”.
Where a chain is given by its changes, count along the chain named. Names and notes keep the numbering of the source.

B1: target 3 G3C,C6U (mixed)
RNA 1: CACCCGUGCAAAAUUGCAGGGGUCUAAAACGACCUGAAUAUUUCAGAUCAAA
RNA 2: GGGAAUGGAUCCACAUCUACGAAUUCGUUUUUGAUCUGAAAUAUUUAGCUCUGCAGAUCGGAAGAGCACACGU
B2: target 1 C2G,A14C (mixed)
RNA 1: CACCCGUGCAAAAAUGCAGGGGUCUAAAACUGAGCGGAUAACCUCUCUAUGG
RNA 2: GGGAAUGGAUCCACAUCUACGAAUUCGUACCAUAGAGCGGUUAUCCGCUGACCGAGAUCGGAAGAGCACACGU
B3: target 3 U2C,G14U (mixed)
RNA 1: B1 RNA 1
RNA 2: B1 RNA 2 with G38U, U46C, C49G, U50C
B4: target 3 C1G,A9G (mixed)
RNA 1: B1 RNA 1
RNA 2: B1 RNA 2 with A43G, U46C, C49G, C51G
B5: target 3 insU 3' of 22,insG 3' of 7 (mixed)
RNA 1: B1 RNA 1
RNA 2: GGGAAUGGAUCCACAUCUACGAAUUCGUUUUUUGAUCUGAAAUAUUGCAGGUCUGCAGAUCGGAAGAGCACACGU
B6: target 3 insC 3' of 8,insA 3' of 3 (mixed)
RNA 1: B1 RNA 1
RNA 2: GGGAAUGGAUCCACAUCUACGAAUUCGUUUUUGAUCUGAAAUAUCUCAGGAUCUGCAGAUCGGAAGAGCACACGU
B7: target 3 G4C,U21C (mixed)
RNA 1: B1 RNA 1
RNA 2: B1 RNA 2 with U31C, U46C, G48C, C49G
B8: target 3 G4U,U7C (mixed)
RNA 1: B1 RNA 1
RNA 2: B1 RNA 2 with U45C, U46C, G48U, C49G
B9: target 3 U2A,U7G (mixed)
RNA 1: B1 RNA 1
RNA 2: B1 RNA 2 with U45G, U46C, C49G, U50A
B10: target 3 insA 3' of 14,insG 3' of 2 (mixed)
RNA 1: B1 RNA 1
RNA 2: B6 RNA 2 with U42A, A43U, U44A, C45U, A51U, U52G
B11: target 3 insG 3' of 22,insG 3' of 22 (mixed)
RNA 1: B1 RNA 1
RNA 2: GGGAAUGGAUCCACAUCUACGAAUUCGUUUGGUUGAUCUGAAAUAUUCAGGUCUGCAGAUCGGAAGAGCACACGU
B12: target 3 G19U,U22A (mixed)
RNA 1: B1 RNA 1
RNA 2: B1 RNA 2 with U30A, G33U, U46C, C49G
B13: target 1 C2A,G17U (mixed)
RNA 1: B2 RNA 1
RNA 2: B2 RNA 2 with G35U, C38A, G50A
B14: target 3 G3C,G4U (mixed)
RNA 1: B1 RNA 1
RNA 2: B1 RNA 2 with U46C, G48U
B15: target 3 U21C,U22A (mixed)
RNA 1: B1 RNA 1
RNA 2: B1 RNA 2 with U30A, U31C, U46C, C49G
B16: target 3 insA 3' of 10,insU 3' of 6 (mixed)
RNA 1: B1 RNA 1
RNA 2: B6 RNA 2 with U44A, C45U, A48U, G49A, A51G
B17: target 3 insA 3' of 22,insG 3' of 2 (mixed)
RNA 1: B1 RNA 1
RNA 2: B5 RNA 2 with U31A, G47C, C48A, A49G, G51U, U52G
B18: target 3 G4U,A9G (mixed)
RNA 1: B1 RNA 1
RNA 2: B1 RNA 2 with A43G, U46C, G48U, C49G
B19: target 3 C6U,U8A (mixed)
RNA 1: B1 RNA 1
RNA 2: B1 RNA 2 with U44A, C49G
B20: target 3 insG 3' of 22,insG 3' of 2 (mixed)
RNA 1: B1 RNA 1
RNA 2: B5 RNA 2 with U31G, G47C, C48A, A49G, G51U, U52G
B21: target 3 U21A,U22C (mixed)
RNA 1: B1 RNA 1
RNA 2: B1 RNA 2 with U30C, U31A, U46C, C49G
B22: target 3 insU 3' of 13,insU 3' of 3 (mixed)
RNA 1: B1 RNA 1
RNA 2: B6 RNA 2 with A40U, U42A, A43U, U44A, C45U, A51U
B23: target 3 insA 3' of 10,insA 3' of 8 (mixed)
RNA 1: B1 RNA 1
RNA 2: B6 RNA 2 with U44A, C45U, U46A, C47U, A48C, G49A, A51G
B24: target 1 insG 3' of 3,insA 3' of 2 (mixed)
RNA 1: B2 RNA 1
RNA 2: GGGAAUGGAUCCACAUCUACGAAUUCGUACCAUAGAGAGGUUAUCCGCUGCAACCGAGAUCGGAAGAGCACACGU
B25: target 1 C2U,C4U (mixed)
RNA 1: B2 RNA 1
RNA 2: B2 RNA 2 with C38A, C48U, G50U
B26: target 3 insC 3' of 11,insU 3' of 3 (mixed)
RNA 1: B1 RNA 1
RNA 2: B6 RNA 2 with U42C, A43U, U44A, C45U, A51U
B27: target 3 U2C,G4U (mixed)
RNA 1: B1 RNA 1
RNA 2: B1 RNA 2 with U46C, G48U, C49G, U50C
B28: target 3 insG 3' of 8,insU 3' of 3 (mixed)
RNA 1: B1 RNA 1
RNA 2: B6 RNA 2 with C45G, A51U
B29: target 3 A5G,C6A (mixed)
RNA 1: B1 RNA 1
RNA 2: B1 RNA 2 with U46A, A47G, C49G
B30: target 3 G4A,A5U (mixed)
RNA 1: B1 RNA 1
RNA 2: B1 RNA 2 with U46C, A47U, G48A, C49G
B31: target 3 insC 3' of 21,insU 3' of 4 (mixed)
RNA 1: B1 RNA 1
RNA 2: B5 RNA 2 with U32C, G47C, C48A, A49G, G50U
B32: target 3 insU 3' of 11,insG 3' of 2 (mixed)
RNA 1: B1 RNA 1
RNA 2: B6 RNA 2 with A43U, U44A, C45U, A51U, U52G

The binders below were run against T1, EsCas13d, nuclease-dead (Eubacterium siraeum, UniProt B0MS50, R295A;H300A;R849A;H854A) (assay: crRNA (strand 1, pre-loaded); Mg2+; 40 mM Tris-HCl pH 7.5, 150 mM NaCl, 6 mM MgCl2, 1 mM DTT, 0.1% Tween-20, 0.2 mg/ml BSA; 25 C; 10 min per concentration, then washed). Conditions: tags: His6-TwinStrep-SUMO cleaved; N-terminal SNAP kept (SNAP-Surface 488); label: 3' end held by stalled T7 RNA polymerase.
T1 sequence: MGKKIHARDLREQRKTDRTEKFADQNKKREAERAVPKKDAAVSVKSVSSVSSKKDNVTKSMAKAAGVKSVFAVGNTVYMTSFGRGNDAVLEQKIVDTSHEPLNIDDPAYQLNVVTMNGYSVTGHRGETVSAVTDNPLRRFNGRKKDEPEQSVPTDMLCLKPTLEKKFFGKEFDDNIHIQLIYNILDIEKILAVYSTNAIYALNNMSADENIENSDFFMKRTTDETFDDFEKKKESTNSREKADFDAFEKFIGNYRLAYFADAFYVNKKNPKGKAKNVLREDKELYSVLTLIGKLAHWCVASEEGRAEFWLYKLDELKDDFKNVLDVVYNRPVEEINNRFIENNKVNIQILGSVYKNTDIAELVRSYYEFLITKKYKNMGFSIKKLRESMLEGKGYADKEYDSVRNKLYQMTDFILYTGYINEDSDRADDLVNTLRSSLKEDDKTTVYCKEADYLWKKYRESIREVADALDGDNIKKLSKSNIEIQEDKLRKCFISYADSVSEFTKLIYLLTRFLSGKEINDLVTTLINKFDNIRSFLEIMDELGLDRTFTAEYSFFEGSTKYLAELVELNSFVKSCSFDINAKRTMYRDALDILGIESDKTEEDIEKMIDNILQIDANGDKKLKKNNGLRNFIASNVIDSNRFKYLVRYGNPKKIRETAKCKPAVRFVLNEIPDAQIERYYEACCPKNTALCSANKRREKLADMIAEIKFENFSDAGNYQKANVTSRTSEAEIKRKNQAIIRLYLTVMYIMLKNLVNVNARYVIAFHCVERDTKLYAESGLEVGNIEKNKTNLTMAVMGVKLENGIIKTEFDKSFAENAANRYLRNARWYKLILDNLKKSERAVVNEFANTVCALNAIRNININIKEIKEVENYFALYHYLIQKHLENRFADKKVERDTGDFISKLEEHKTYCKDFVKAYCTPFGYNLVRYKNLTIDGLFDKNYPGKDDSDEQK
In the case of B1, the Kd is reported as 13.1 ± 0.95 nM.
Binder B2 has a Kd of 44.8 ± 3.3 nM.
B3 showed a Kd of 82 ± 34 nM.
B4 gave a Kd of 33.5 ± 8.5 nM.
With B5 the Kd was 85 ± 26.5 nM.
B6 showed a Kd of 93 ± 27 nM.
In the case of B7, the Kd is reported as 60 ± 21 nM.
B8 showed a Kd of 120 ± 40 nM.
For B9, the Kd was 62.5 ± 10.5 nM.
Binder B10 has a Kd of 32.8 ± 3.65 nM.
B11 showed a Kd of 64.5 ± 13.5 nM.
Work on B12 yielded a Kd of 80 ± 7 nM.
Binder B13 has a Kd of 30.5 ± 2.6 nM.
B14 was tested, and the Kd was 18.3 ± 3.2 nM.
Work on B15 yielded a Kd of 30.5 ± 7 nM.
Work on B16 yielded a Kd of 79.5 ± 14.5 nM.
In the case of B17, the Kd is reported as 32.9 ± 4.15 nM.
B18 showed a Kd of 37.5 ± 4 nM.
For B19, the Kd was 50.8 ± 4.85 nM.
Binder B20 has a Kd of 61 ± 23 nM.
B21 gave a Kd of 37.3 ± 5.65 nM.
In the case of B22, the Kd is reported as 64.5 ± 20 nM.
Binder B23 has a Kd of 110 ± 28 nM.
B24 was tested, and the Kd was 6.5 ± 0.4 nM.
Work on B25 yielded a Kd of 58 ± 17 nM.
With B26 the Kd was 74.5 ± 33.5 nM.
B27 was tested, and the Kd was 23 ± 5 nM.
In the case of B28, the Kd is reported as 85.5 ± 29.5 nM.
Binder B29 has a Kd of 34.1 ± 3.35 nM.
Work on B30 yielded a Kd of 19.3 ± 2.25 nM.
Work on B31 yielded a Kd of ~68.5 nM.
For B32, the Kd was 42.5 ± 6 nM.
